In patent US20220332804A1 (CSL INNOVATION, published 2022):

Tests used:
Assay in all cases: SPR, antibody captured, C2 as analyte;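 note: biacore SPR at 37 °C, anti-C2 mAbs captured via goat anti-human IgG on CM5 chips, double-referenced sensorgrams fit to a 1:1 kinetic or steady-state model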
human C2 I320A = biological target: T1, human C2 I320A (human, UniProt P06681 21-752)
T1 sequence: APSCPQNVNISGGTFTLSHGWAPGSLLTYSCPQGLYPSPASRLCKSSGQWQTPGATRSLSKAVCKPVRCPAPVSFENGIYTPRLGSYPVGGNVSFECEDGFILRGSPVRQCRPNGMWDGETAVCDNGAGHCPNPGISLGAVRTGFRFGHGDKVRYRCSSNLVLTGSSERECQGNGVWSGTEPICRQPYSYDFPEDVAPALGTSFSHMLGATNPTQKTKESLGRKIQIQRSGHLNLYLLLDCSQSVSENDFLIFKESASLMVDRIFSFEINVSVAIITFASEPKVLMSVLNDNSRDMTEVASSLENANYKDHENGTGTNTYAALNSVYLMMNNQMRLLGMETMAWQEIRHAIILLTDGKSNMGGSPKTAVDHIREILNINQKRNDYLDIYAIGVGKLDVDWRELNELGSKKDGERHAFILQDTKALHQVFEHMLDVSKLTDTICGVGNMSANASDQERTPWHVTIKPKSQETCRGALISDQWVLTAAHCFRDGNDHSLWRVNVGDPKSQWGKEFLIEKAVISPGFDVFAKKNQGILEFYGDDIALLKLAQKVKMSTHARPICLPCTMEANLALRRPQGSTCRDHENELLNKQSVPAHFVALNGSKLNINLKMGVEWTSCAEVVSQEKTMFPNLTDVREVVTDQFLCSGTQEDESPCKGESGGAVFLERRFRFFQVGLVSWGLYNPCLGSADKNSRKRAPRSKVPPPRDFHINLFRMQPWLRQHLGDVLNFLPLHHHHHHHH

human C2 T491A = biological target: T2, human C2 T491A (human, UniProt P06681 21-752)
T2 sequence: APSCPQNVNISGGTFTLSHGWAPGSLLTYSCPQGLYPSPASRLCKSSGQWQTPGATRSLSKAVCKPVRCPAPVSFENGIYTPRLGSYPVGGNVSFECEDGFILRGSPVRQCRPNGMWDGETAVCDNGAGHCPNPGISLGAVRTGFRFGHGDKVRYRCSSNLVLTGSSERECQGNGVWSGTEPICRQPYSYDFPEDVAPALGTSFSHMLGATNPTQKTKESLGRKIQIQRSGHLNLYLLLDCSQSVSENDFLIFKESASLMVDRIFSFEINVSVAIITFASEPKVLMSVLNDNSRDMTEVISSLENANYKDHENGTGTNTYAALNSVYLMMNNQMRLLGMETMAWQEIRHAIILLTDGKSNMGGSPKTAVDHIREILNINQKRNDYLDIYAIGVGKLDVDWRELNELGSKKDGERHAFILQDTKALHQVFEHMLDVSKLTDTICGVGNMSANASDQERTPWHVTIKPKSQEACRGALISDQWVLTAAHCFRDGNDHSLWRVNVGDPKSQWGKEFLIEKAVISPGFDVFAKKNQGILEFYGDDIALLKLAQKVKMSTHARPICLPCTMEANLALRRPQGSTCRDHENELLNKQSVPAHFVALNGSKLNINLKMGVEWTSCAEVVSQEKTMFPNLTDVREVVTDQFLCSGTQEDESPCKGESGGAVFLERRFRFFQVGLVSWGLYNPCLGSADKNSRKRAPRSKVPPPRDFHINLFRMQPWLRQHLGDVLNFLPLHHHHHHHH

human C2 G530A = biological target: T3, human C2 G530A (human, UniProt P06681 21-752)
T3 sequence: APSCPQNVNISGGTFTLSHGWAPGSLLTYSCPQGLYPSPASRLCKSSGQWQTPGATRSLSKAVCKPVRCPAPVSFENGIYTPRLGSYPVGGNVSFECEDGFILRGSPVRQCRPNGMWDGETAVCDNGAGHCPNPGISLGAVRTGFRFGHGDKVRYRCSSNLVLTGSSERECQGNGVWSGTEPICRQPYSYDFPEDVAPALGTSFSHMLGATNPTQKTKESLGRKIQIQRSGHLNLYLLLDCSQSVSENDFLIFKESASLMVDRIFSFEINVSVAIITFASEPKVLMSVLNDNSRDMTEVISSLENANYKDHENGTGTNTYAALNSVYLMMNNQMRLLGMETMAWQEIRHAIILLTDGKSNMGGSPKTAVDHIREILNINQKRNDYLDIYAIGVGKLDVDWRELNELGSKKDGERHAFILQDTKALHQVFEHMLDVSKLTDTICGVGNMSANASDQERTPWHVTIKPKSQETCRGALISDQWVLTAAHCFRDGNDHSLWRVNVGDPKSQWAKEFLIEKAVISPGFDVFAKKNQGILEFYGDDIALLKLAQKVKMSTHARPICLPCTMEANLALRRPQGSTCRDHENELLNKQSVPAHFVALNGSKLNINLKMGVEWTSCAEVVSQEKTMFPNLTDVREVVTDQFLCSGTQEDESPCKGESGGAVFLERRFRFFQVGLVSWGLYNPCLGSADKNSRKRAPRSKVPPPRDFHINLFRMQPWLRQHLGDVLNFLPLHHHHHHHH

human C2 E532A = biological target: T4, human C2 E532A (human, UniProt P06681 21-752)
T4 sequence: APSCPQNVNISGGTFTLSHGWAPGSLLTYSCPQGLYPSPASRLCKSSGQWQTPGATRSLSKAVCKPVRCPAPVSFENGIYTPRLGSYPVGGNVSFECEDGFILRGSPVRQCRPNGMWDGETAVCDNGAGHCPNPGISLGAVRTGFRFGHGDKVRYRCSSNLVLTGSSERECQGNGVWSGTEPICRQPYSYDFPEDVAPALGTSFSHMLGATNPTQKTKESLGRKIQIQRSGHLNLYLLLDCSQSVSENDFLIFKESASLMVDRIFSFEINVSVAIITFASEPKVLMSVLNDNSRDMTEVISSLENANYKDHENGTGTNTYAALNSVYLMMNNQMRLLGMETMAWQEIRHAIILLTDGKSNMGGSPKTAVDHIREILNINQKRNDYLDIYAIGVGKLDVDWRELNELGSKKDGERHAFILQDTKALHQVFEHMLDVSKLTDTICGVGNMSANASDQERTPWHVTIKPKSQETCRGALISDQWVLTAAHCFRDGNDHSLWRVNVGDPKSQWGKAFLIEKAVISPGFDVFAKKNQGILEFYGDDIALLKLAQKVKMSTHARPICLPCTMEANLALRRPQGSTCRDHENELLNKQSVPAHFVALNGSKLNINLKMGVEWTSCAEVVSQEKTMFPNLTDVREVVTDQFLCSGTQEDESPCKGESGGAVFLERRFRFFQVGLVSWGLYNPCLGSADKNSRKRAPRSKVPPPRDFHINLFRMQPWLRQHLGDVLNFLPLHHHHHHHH

B1: RF16-226 (antibody, human IgG4 S228P, lambda)
heavy: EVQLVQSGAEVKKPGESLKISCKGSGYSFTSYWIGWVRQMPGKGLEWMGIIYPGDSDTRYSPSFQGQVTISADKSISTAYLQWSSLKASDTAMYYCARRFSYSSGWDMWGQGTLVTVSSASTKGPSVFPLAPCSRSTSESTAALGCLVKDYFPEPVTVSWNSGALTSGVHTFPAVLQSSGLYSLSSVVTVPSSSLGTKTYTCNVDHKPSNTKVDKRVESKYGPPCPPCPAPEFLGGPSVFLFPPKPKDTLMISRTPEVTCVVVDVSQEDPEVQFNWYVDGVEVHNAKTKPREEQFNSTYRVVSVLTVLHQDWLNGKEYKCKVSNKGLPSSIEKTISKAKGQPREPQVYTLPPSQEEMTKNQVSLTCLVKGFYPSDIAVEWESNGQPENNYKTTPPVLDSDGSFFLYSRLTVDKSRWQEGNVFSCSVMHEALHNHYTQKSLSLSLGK
light: SYELTQPPSVSVSPGQTARITCSGDALTSKYVAWYQQKSGLAPLLVIYEDTRRPSGIPAKFSGSSSGSVATLTISGAHGDDEADYYCYSTDASGHQRVFGGGTKLTVLSQPKAAPSVTLFPPSSEELQANKATLVCLISDFYPGAVTVAWKADGSPVKAGVETTKPSKQSNNKYAASSYLSLTPEQWKSHRSYSCQVTHEGSTVEKTVAPTECS
notes: pH-dependent anti-C2 antibody from a phage display library; also called WT
With B1 the Kd (human C2 I320A) was 0.116 µM, the Kd (human C2 T491A) was 0.0155 µM and the Kd (human C2 G530A) was 0.0167 µM. The Kd (human C2 E532A) was 0.0172 µM.
